Assay results taken from paper PMC10373194, “Determination of the Dissociation Constant for Polyvalent Receptors Using ELISA: A Case of M13 Phages Displaying Troponin T-Specific Peptides” (ACS Omega, 2023).
Where “and” joins values, the source holds several entries; their conditions need not be identical. Identical values can stand only once. Like-named read-outs stand apart in the source and are kept apart here.

How the values were obtained:
troponin T (TnT) [1] = biological target: T1, troponin T (TnT) (Homo sapiens, UniProt P45379); assay: Determination of Kd via k-ELISA (Friguet procedure, preincubation of phage with soluble TnT); type: binding
Experimental: During an ELISA experiment, as proposed by Friguet,[21] a constant concentration of phages is incubated with different concentrations of TnT. Saturation of phages (in solution) by soluble TnT limits the ability of phages to bind to immobilized TnT, and therefore, increasing concentration of TnT causes a decrease in signal from the phages, in our case, the M13. Theoretically, two options have to be discussed: (1) a signal (a) is generated for each phage with at least one unoccupied active site (eq 11) and (2) a signal (a) is generated proportionally to the total concentration of unoccupied active sites (eq 12). [drawing 21] 11 [drawing 22] 12
ELISA (also k-ELISA) can be used to measure the dissociation constant (Kd), which is commonly applied to describe affinity.[21] According to the mathematical model presented above, the Kd value can be calculated via pre-incubation of a receptor with varied concentrations of ligand and subsequent detection of the soluble receptor (phage) via ELISA. This approach was adapted and applied to evaluate the affinity of several phage-derived ligands[16]−[18] but without a theoretical analysis and fulfilling fundamental Friguet’s assumptions.[21] In these papers, phages were treated as monovalent receptors while they are tri to pentavalent (due to a varied number of pIII protein per phage particle). Moreover, the authors applied a wide range of ligand concentrations, high excess compared to the receptor and treated the concentration-signal function as logarithmic, while the discussion above concluded that it is not possible to apply Frigeut’s method for almost completely saturated receptors (due to ligand excess).
In our work, analysis was performed for clones: A3, B7, D11, and wild-type M13. […] The phages’ total concentration was about 1 × 10^10 pfu/mL (16 pM) and was carefully determined using the biological method immediately before analysis. The range of ratios of total TnT and total phage concentration was 1:2, 1:1, 2:1, and 4:1. […] As a result, a decrease in the ability to bind to immobilized TnT molecules occurs. Experimental data were analyzed according to the presented mathematical model.
The dissociation constant was calculated using k-ELISA, according to the procedure first described by Friguet.[21] Phages (∼10^10 pfu/mL corresponding to about 16 pM) were preincubated with different concentrations of TnT from 0 to 4 ng/mL (which corresponds to 108 pM). Next, mixtures were transferred into wells precoated with 0.25 μg/mL TnT (or BSA). Further steps were performed in the same manner as for phage concentration measuring experiments.

troponin T (TnT) [2] = biological target: T1, troponin T (TnT); assay: ELISA screening of isolated phage clones against TnT (BSA as negative control)
Experimental: It is worth mentioning that both TnT- and BSA-precoated wells were blocked with the same 0.1% BSA solution, so BSA was present in each well in significant excess.
ELISAs were performed in 96-well polystyrene plates (Thermo Scientific, USA). Wells were precoated with the desired protein by 16–20 h incubation of the protein suspension in PBS at 4 °C. In all assays, 1:5000 dilution of HRP-antiM13pVIII monoclonal antibody conjugate was used. Signals were recorded using Synergy HTX Multi-Mode Reader by BioTek.
In the initial screening, plates were precoated with troponin T or BSA (negative control) by incubating 100 μL of 1 μg/mL appropriate protein solution. Then plates were blocked with 0.1% BSA for 2 h at 4 °C and washed 4 times with 0.1% PBST. Every isolated phage clone solution (phages concentration 10^10 pfu/mL, 100 μL) was incubated with TnT and BSA for 1 h at 350 rpm at room temperature. Then wells were washed 4 times using 0.1% PBST, 100 μL of HRP-antibody conjugate was added, and plates were incubated as previously. After 1 h, plates were washed as before, and 50 μL of TMB was added. After 5 min, the reaction was stopped by adding 50 μL of 2 M sulfuric acid. Absorbance at 450 nm was read using a Synergy HTX Multi-Mode Reader (BioTek) plate reader.

troponin T (TnT) [3] = biological target: T1, troponin T (TnT); type: binding
troponin T (TnT) [4] = biological target: T1, troponin T (TnT); assay: Bio-panning of Ph.D.-12 phage display library on TnT-coated plates; type: binding; details: after 3 rounds of bio-panning; number of proper sequences
Text: In each bio-panning round, the input and output phases were titrated immediately before or after the experiment. The presented mean p(O/I) value for each bio-panning round may be interpreted as the efficiency of phage binding. In chemical nomenclature, p(x) is defined as −log(x), so a higher p(O/I) means a lower ratio of phage output–input. The p(O/I) value for the first panning round is relatively low. However, usage of more concentrated Tween-20 (from 0.1 to 0.5%) causes a significant increase in p(O/I) values for the second round (around 4) despite a higher phage input. In addition, there is a difference between the second and the third p(O/I), which may be interpreted as an enrichment of TnT-binders in the phage pool, and it is the main aim of bio-panning via phage display. The increase in phage recovery yield is a widely reported observation by manufacturers and other authors.[14],[17],[35],[36]
Plate panning was performed regarding the general concept presented by Barbas et al.[60] with some modifications. Polystyrene plates were precoated with TnT and incubated overnight (18–24 h) in 100 μL of 20 μg/mL TnT solution in PBS at 4 °C. Then, the wells were emptied and filled with 100 μL of 0.1% BSA solution (in PBS) and incubated for 2 h in the fridge. Later, they were washed four times with PBST 0.1% (in the first panning round) and 0.5% in the next two. […]

[5] = assumed stoichiometry 1:1, k-ELISA, phages ~10^10 pfu/mL (about 16 pM) preincubated with TnT 0 to 4 ng/mL, wells precoated 0.25 μg/mL TnT, 0.01% myoglobin blocking, absorbance 370 nm every 70 s for 10 min, linear slope regression, triplicate, phage-displayed peptide
[6] = assumed stoichiometry 1:2, k-ELISA, phages ~10^10 pfu/mL (about 16 pM) preincubated with TnT 0 to 4 ng/mL, wells precoated 0.25 μg/mL TnT, 0.01% myoglobin blocking, absorbance 370 nm every 70 s for 10 min, linear slope regression, triplicate, phage-displayed peptide

Question: Which Kd (troponin T (TnT) [1]; [5]) does the source give for “B7: TnT-binding M13 phage clone displaying 12-amino-acid peptide (HRSMPTPLWYTA in Table 2) on pIII” here?
Answer: 77 ± 13 pM

Question: What about the Kd (troponin T (TnT) [1]; [6]) of the same substance?
Answer: 166 ± 30 pM

Question: What about the Kd (troponin T (TnT) [1]; assumed stoichiometry 1:5, k-ELISA, phages ~10^10 pfu/mL (about 16 pM) preincubated with TnT 0 to 4 ng/mL, wells precoated 0.25 μg/mL TnT, 0.01% myoglobin blocking, absorbance 370 nm every 70 s for 10 min, linear slope regression, triplicate, phage-displayed peptide) of the same substance?
Answer: 143 ± 53 pM

Question: “D11: TnT-binding M13 phage clone displaying 12-amino-acid peptide (ALKIGPETTIYM in Table 2) on pIII” was tested. Which Kd (troponin T (TnT) [1]; [5]) did it give?
Answer: 167 ± 7 pM

Question: And the Kd (troponin T (TnT) [1]; [6])?
Answer: 216 ± 40 pM

Question: Which “ELISA signal TnT versus BSA / affinity in screening (in words)” value (troponin T (TnT) [2]) does the source give for DHAQRYGAGHSG [A3] here?
Answer: highest affinity in screening

Question: What about the “nature of interaction with target” value (troponin T (TnT) [3]) of the same substance?
Answer: specific interaction with the studied target

Question: And the “frequency among sequenced clones” value (troponin T (TnT) [4])?
Answer: 4 out of 16 and 4/16

Question: And the Kd (troponin T (TnT) [1])?
Answer: 115 pM and 187 pM and 172 pM
